The data set in a line: self-splicing fitness, log relative to wild type (ln ratio); higher = more splicing; Tetrahymena group I intron in knt gene, E. coli kanamycin selection, DiMSum; sequences stand for … in CUCUCU…GGAGGGAAAAGUUAUCAGGCAUGCACCUGGUAGCUAGUCUUUAAACCAAUAGAUUGCAUCGGUUUAAAAGGCAAGACCGUCAAAUUGCGGGAAAGGGGUCAACAGCCGUUCAGUACCAAGUCUCAGGGGAAACUUUGAGAUGGCCUUGCAAAGGGUAUGGUAAUAAGCUGACGGACAUGGUCCUAACCACGCAGCCAAGUCCUAAGUCAACAGAUCUUCUGUUGAUAUGGAUGCAGUUCACAGACUAAAUGUCGGUCGGGGAAGAUGUAUUCUUCUCAUAAGAUAUAGUCGGACCUCUCCUUAAUGGGAGCUAGCGGAUGAAGUGAUGCAACACUGGAGCCGCUGGGAACUAAUUUGUAUGCGAAAGUAUAUUGAUUAGUUUUGGAGUACUCGUGGUCG
The method, boiled down:
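Pooled colonies went to amplicon sequencing on an Illumina HiSeq 2500 after six replicate transformations. The plates were LB agar with 100 μg/mL carbenicillin, 50 μM IPTG and 0.2% rhamnose, with or without 25 μg/mL kanamycin, incubated overnight at 37°C or 30°C. The E. coli BL21(DE3) library had all eight P1ex-region intron nucleotides randomised, the intron placed in the knt kanamycin-resistance gene on pET-22b(+). DiMSum fitness is the error-weighted combination of replicate fold changes, kanamycin against none, normalised to wild type.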

These results are taken from the supplement of paper PMC7877785.

± gives the uncertainty stated by the source.

In the case of UCAAAGCAAUAUUACGCUUC, the “self-splicing fitness (ln)” value is -4.01 ± 0.23 (30 °C) and -2.02 ± 0.23 (37 °C).

Turning to AGGAAGCAAUAUUACGAUUU, the “self-splicing fitness (ln)” value was -0.378 ± 0.078 (30 °C) and 0.0421 ± 0.11 (37 °C).

With GAAGAGCAAUAUUACGUUUG, the “self-splicing fitness (ln)” value by setting is: (30 °C) -4.05 ± 0.2; (37 °C) -2.8 ± 0.23.

On to CCAAAGCAAUAUUACGCGUA, for which the “self-splicing fitness (ln)” value is, setting by setting: (30 °C) -4.41 ± 0.34; (37 °C) -3.75 ± 0.32.

On to UUCCAGCAAUAUUACGCGGA, for which the “self-splicing fitness (ln)” value is -2.74 ± 0.24 (30 °C) and -3.39 ± 0.33 (37 °C).

For ACCAAGCAAUAUUACGCCGG, the “self-splicing fitness (ln)” value runs as follows: (30 °C) -2.33 ± 0.13; (37 °C) -0.125 ± 0.13.

As to AGGGAGCAAUAUUACGUGCC, where the note is “30 °C”, the “self-splicing fitness (ln)” value is -2.79 ± 0.46.

For CACCAGCAAUAUUACGUCGC, the “self-splicing fitness (ln)” value was -3.1 ± 0.12 (30 °C) and -2.28 ± 0.17 (37 °C).

Regarding GGUUAGCAAUAUUACGUAUG, the “self-splicing fitness (ln)” value (30 °C) is -3.18 ± 0.17 and the “self-splicing fitness (ln)” value (37 °C) was -0.52 ± 0.15.

Turning to GUUUAGCAAUAUUACGGAAG, the “self-splicing fitness (ln)” value (30 °C) was -2.59 ± 0.23 and the “self-splicing fitness (ln)” value (37 °C) is -0.848 ± 0.22.

As to UCUCAGCAAUAUUACGAGCG, the “self-splicing fitness (ln)” value was -0.123 ± 0.091 (30 °C) and -0.0856 ± 0.1 (37 °C).

Turning to GACCAGCAAUAUUACGAUAA, the “self-splicing fitness (ln)” value (30 °C) is -1.53 ± 0.094 and the “self-splicing fitness (ln)” value (37 °C) was -1.13 ± 0.1.

Take UAUCAGCAAUAUUACGUAAU: the “self-splicing fitness (ln)” value is -1.62 ± 0.073 (30 °C) and -0.784 ± 0.077 (37 °C).

Regarding UAUAAGCAAUAUUACGAGUU, the “self-splicing fitness (ln)” value by setting is: (30 °C) -2.72 ± 0.15; (37 °C) -1.11 ± 0.15.

Regarding UGUUAGCAAUAUUACGAUGA, the “self-splicing fitness (ln)” value is, setting by setting: (30 °C) -0.408 ± 0.09; (37 °C) -1.06 ± 0.092.

AAAGAGCAAUAUUACGGUUG: the “self-splicing fitness (ln)” value runs as follows: (30 °C) -3.84 ± 0.27; (37 °C) -2.14 ± 0.25.

For the sequence AGGAAGCAAUAUUACGUCAC, the “self-splicing fitness (ln)” value reads like this: (30 °C) -3.41 ± 0.2; (37 °C) -3.65 ± 0.3.

For GGAGAGCAAUAUUACGGUGU, the “self-splicing fitness (ln)” value reads like this: (30 °C) -3.55 ± 0.28; (37 °C) -2.38 ± 0.18.

Regarding GUAUAGCAAUAUUACGAUAU, the “self-splicing fitness (ln)” value runs as follows: (30 °C) -2.87 ± 0.32; (37 °C) -0.832 ± 0.36.

For UGCGAGCAAUAUUACGAAUG, the “self-splicing fitness (ln)” value is, setting by setting: (30 °C) -2.77 ± 0.18; (37 °C) -2.43 ± 0.23.

As for ACCUAGCAAUAUUACGCUGG, the “self-splicing fitness (ln)” value is -4.07 ± 0.35 (30 °C) and -2.53 ± 0.22 (37 °C).

As for UGGUAGCAAUAUUACGGUAC, the “self-splicing fitness (ln)” value is -3.95 ± 0.4 (30 °C) and -1.43 ± 0.27 (37 °C).

On to CGGGAGCAAUAUUACGUCCU, for which, where the note is “30 °C”, the “self-splicing fitness (ln)” value was -2.54 ± 0.25.

Turning to GCGGAGCAAUAUUACGAGCU, the “self-splicing fitness (ln)” value is, setting by setting: (30 °C) -2.02 ± 0.27; (37 °C) 0.307 ± 0.24.

On to GGGGAGCAAUAUUACGUCGG, for which the “self-splicing fitness (ln)” value (37 °C) was -1.07 ± 0.36.

As for GAAUAGCAAUAUUACGGACC, the “self-splicing fitness (ln)” value runs as follows: (30 °C) -0.00208 ± 0.1; (37 °C) 0.0435 ± 0.18.

With CGUGAGCAAUAUUACGGUGU, the “self-splicing fitness (ln)” value is -3.79 ± 0.43 (30 °C) and -1.98 ± 0.22 (37 °C).

On to CCCCAGCAAUAUUACGAGUC, for which the “self-splicing fitness (ln)” value runs as follows: (30 °C) -3.78 ± 0.14; (37 °C) -3.03 ± 0.17.

On to CAUUAGCAAUAUUACGCACA, for which the “self-splicing fitness (ln)” value by setting is: (30 °C) -1.01 ± 0.16; (37 °C) -0.408 ± 0.13.

For the sequence CGACAGCAAUAUUACGAUAA, the “self-splicing fitness (ln)” value is -3.74 ± 0.28 (30 °C) and -1.27 ± 0.14 (37 °C).

In the case of AGGCAGCAAUAUUACGCUUU, the “self-splicing fitness (ln)” value was -3.17 ± 0.35 (30 °C) and -1.41 ± 0.18 (37 °C).

For GCUAAGCAAUAUUACGAAUU, the “self-splicing fitness (ln)” value reads like this: (30 °C) -2.39 ± 0.18; (37 °C) -0.0664 ± 0.13.

As to AAGGAGCAAUAUUACGUAAA, the “self-splicing fitness (ln)” value by setting is: (30 °C) -2.81 ± 0.32; (37 °C) -0.663 ± 0.24.

With UGCUAGCAAUAUUACGCGGG, the “self-splicing fitness (ln)” value runs as follows: (30 °C) -3.41 ± 0.28; (37 °C) -2.38 ± 0.31.

As to AAGAAGCAAUAUUACGCAGA, the “self-splicing fitness (ln)” value runs as follows: (30 °C) -2.35 ± 0.17; (37 °C) -1.5 ± 0.11.

With UGGAAGCAAUAUUACGCAAA, the “self-splicing fitness (ln)” value was -1.24 ± 0.16 (30 °C) and -0.937 ± 0.16 (37 °C).

In the case of UAUUAGCAAUAUUACGUGCU, the “self-splicing fitness (ln)” value reads like this: (30 °C) -2.12 ± 0.12; (37 °C) -2.04 ± 0.15.

As to CGGAAGCAAUAUUACGUCAU, the “self-splicing fitness (ln)” value runs as follows: (30 °C) -3.78 ± 0.16; (37 °C) -3.33 ± 0.2.
